From PMC10168641 come the findings set out here.

The term stoichiometry N denotes the number of molecules, sites or subunits per partner or assembly.

This assay concerns the target NcCAR reductase (R) domain, NcCAR^Δ1–649 (Neurospora crassa). In words: SAXS; R-domain in solution; best fit of the experimental data as a mixture of monomer and dimer.

“NcCAR reductase (R) domain, NcCAR^Δ1–649 (domain or fragment)”: the percent dimer in solution stood at 69%, the percent monomer in solution was determined as 31% and the stoichiometry N amounted to 2.
